Test results published in patent US20210230287A1 (WUXI BIOLOGICS SHANGHAI, published 2021).

What was measured:
[1] = molecular target: T1, human 4-1BB, full-length, on cells (human, UniProt Q07011 24-255); test: flow cytometry on human 4-1BB-expressing CHO-K1 cells, PE goat anti-human IgG Fc, MFI
T1 construct: also called human 4-1BB expressing CHO-K1 cells; cell surface 4-1BB
Method: Human 4-1BB-expressing CHO-K1 cells were transferred into 96-well U-bottom plates at a density of 1×10⁵ cells/well. […] After washing, the secondary antibody, PE labeled Goat anti-human IgG Fc Fragment (Jackson ImmunoResearch), was applied and incubated with cells at 4° C. in the dark for 1 h. The cells were then washed and re-suspended in PBS and then analyzed by a flow cytometer (BD).

[2] = molecular target: T2, mouse 4-1BB extracellular domain, His tag (mouse, UniProt P20334 24-187); test: SPR, Biacore T200; antibody captured on Protein G chip, mouse 4-1BB ECD.His as analyte
T2 construct: extracellular domain; also called mPro1.ECD.His; not shown: His tag
T2 sequence (looked up): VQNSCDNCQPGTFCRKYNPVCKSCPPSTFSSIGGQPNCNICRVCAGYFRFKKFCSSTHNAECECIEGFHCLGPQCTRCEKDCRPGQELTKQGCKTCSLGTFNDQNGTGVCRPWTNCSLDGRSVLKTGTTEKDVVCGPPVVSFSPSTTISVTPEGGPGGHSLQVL
Method: (§1) Antibodies were characterized for affinity and binding kinetics to human, cynomolgus and mouse 4-1BB by SPR assay using Biacore T200 (GE). Protein G was pre-immobilized to a sensor chip (CMS), and anti-4-1BB antibodies were captured when injected to the chip. Various concentrations of human 4-1BB and running buffer were flowed through the sensor chip for an association phase, and followed by dissociation. The association and dissociation curve was analyzed using Biacore T200 Evaluation software Version 2.0.

[3] = molecular target: T3, human 4-1BB extracellular domain, His tag (human, UniProt Q07011 24-186); test: SPR, Biacore T200; antibody captured on Protein G chip, 4-1BB ECD.His as analyte
T3 construct: also called hPro1.ECD.His; not shown: C-terminal His tag
Method: as §1

[4] = molecular target: T4, cynomolgus 4-1BB extracellular domain, His tag (cynomolgus, UniProt A9YYE7 24-186); test: SPR, Biacore T200; antibody captured on Protein G chip, cynomolgus 4-1BB ECD.His as analyte
T4 construct: extracellular domain; also called cynoPro1.ECD.His; ACRO-41B-C52H4; not shown: His tag
Method: as §1

CD40 = CD40 (human, UniProt P25942 21-193, limits assumed); test: ELISA on plate-coated antigen, HRP goat anti-human IgG Fc, OD450-OD540; antibody concentration not given
Method: (§2) Cross-reactivity to TNFR family members OX40, CD40 and GITR was determined by ELISA. Plates (Nunc) were coated with OX40, CD40 or GITR overnight at 4° C. After blocking and washing, anti-4-1BB antibodies were added to the plates and incubated at room temperature for 1 h. The plates were then washed and subsequently incubated with secondary antibody, HRP Conjugated Goat anti-human IgG Fc Fragment antibody (Bethyl), for 45 min. After washing, TMB substrate was added and the color reaction was stopped by 2M HCl. The absorbance at 450 and 540 nm were read using a microplate reader (Molecular Device).

OX40 = molecular target: T5, OX40 (human, UniProt P43489 29-216, limits assumed); test: as above
T5 sequence (looked up): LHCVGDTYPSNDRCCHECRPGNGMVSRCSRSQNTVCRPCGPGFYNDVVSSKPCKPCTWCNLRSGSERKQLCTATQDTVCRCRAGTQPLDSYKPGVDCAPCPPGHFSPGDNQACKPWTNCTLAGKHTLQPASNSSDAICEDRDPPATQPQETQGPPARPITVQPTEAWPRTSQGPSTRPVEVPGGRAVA
Method: as §2

GITR = molecular target: T6, GITR (human, UniProt Q9Y5U5 26-161, limits assumed); test: as above
T6 sequence (looked up): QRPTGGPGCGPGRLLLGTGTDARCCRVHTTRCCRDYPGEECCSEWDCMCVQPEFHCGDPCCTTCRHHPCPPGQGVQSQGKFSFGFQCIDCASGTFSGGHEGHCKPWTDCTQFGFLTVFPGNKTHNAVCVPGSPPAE
Method: as §2

[5] = molecular target: human 4-1BB protein (coated on ELISA plates) (human, UniProt Q07011 24-186, limits assumed); test: competition ELISA on plate-coated human 4-1BB; competitor: biotinylated BMK4, detected with streptavidin-HRP, OD450-OD540
Method: Plates were pre-coated with human 4-1BB protein at 4° C. overnight. After blocking, various concentrations of testing antibodies were pre-mixed with biotinylated BMK antibodies and added to the plates. The plates were incubated at ambient temperature for 1 hour. The binding of the BMK antibodies to human 4-1BB was detected by streptavidin-HRP. The color was developed by dispensing TMB substrate, and then stopped by 2N HCl. The absorbance was read at 450 nm and […] using a microplate spectrophotometer.

[6] = molecular target: T7, mouse 4-1BB, full-length, on cells (mouse, UniProt P20334 24-256); test: flow cytometry on murine 4-1BB-expressing CHO-K1 cells, PE goat anti-human IgG Fc, MFI
T7 construct: whole, on cells; also called murine 4-1BB expressing CHO-K1 cells
Method: Murine 4-1BB-expressing CHO-K1 cells were transferred into 96-well U-bottom plates at a density of 1×10⁵ cells/well. Testing antibodies were serially diluted in PBS containing 1% BSA, and incubated with cells at 4° C. for 1 h. After washing, the secondary antibody, PE labeled Goat anti-human IgG Fc Fragment (Jackson ImmunoResearch), was applied and incubated with cells at 4° C. in the dark for 1 h. The cells were then washed and resuspended in PBS and then analyzed by flow cytometer (BD).

B1: 2.19.8-u1-3-hIgG1L (antibody, V domains shown)
VH: QVQLVESGGGLVKPGGSLRLSCAASGFTFSDYFMSWIRQAPGKGLEWVSYISNAGSSKYYADSVKGRFTISRDNAKNSLYLQMNSLRAEDTAVYYCVRDPYSGSYSGWFDPWGQGTLVTVSS
VL: SYDLTQPPSVSVSPGQTASITCSGDDLGDKYTSWYQQKPGQSPVLVVYQDHKRPSGIPERFSGSNSGNTATLTISGTQAMDEADYYCQAWDKGIVVFGGGTKLTVL
notes: Fully human antibody
In the case of B1, the “EC50 (read off the curve)” value [1] is reported as about 0.07 nM, the Kd [2] is reported as 26.1 nM and the koff [2] is reported as 0.975 s⁻¹. The kon [2] was 3.73e+07 M⁻¹ s⁻¹, the Kd [3] was 0.0257 nM and the koff [3] was 6.48e-05 s⁻¹. For the same binder, the kon [3] was 2.52e+06 M⁻¹ s⁻¹, the Kd [4] was 0.0164 nM and the koff [4] was 2.96e-05 s⁻¹. For the same binder, the kon [4] was 1.81e+06 M⁻¹ s⁻¹, the binding result (CD40) was “no binding” and the binding result (OX40) was “no binding”. For the same binder, the binding result (GITR) was “no binding” and the “IC50 (read off the curve)” value [5] was about 0.9 nM.

B2: 2.19.8-u1-3-hIgG4L (antibody, V domains shown)
VH: QVQLVESGGGLVKPGGSLRLSCAASGFTFSDYFMSWIRQAPGKGLEWVSYISNAGSSKYYADSVKGRFTISRDNAKNSLYLQMNSLRAEDTAVYYCVRDPYSGSYSGWFDPWGQGTLVTVSS
VL: SYDLTQPPSVSVSPGQTASITCSGDDLGDKYTSWYQQKPGQSPVLVVYQDHKRPSGIPERFSGSNSGNTATLTISGTQAMDEADYYCQAWDKGIVVFGGGTKLTVL
With B2 the “EC50 (read off the curve)” value [1] was about 0.06 nM, the Kd [2] was 18.4 nM and the koff [2] was 0.215 s⁻¹. The kon [2] was 1.17e+07 M⁻¹ s⁻¹, the Kd [3] was 0.0177 nM and the koff [3] was 3.74e-05 s⁻¹. It also gave a kon [3] of 2.11e+06 M⁻¹ s⁻¹, a Kd [4] of 0.0158 nM and a koff [4] of 2.93e-05 s⁻¹. The kon [4] was 1.86e+06 M⁻¹ s⁻¹, the binding result (CD40) was “no binding” and the binding result (OX40) was “no binding”. The binding result (GITR) was “no binding” and the “IC50 (read off the curve)” value [5] was about 1 nM.

B3: 2.27.16-u1-1-hIgG1L (antibody, V domains shown)
VH: QEQLQESGPGLVKPSQTLSLTCTVSGGSINSQGYYWSWIRQHPGKGLEWIGYIYDSGSAYYNPSLERRVAISLDTSKNQFSLNLNSVTVADTAVYYCARIVAAGRIDPWGQGTLVTVSS
VL: SYVLTQPPSVSVAPGQTARMTCGGDNIGIKIVHWYQQKAGQAPVLVVYDDNDRPSGIPDRFSGSNSGNTATLTISRVAAGDEADYYCQVWDRRSDHVVFGGGTKLTVL
notes: Fully human antibody
B3 was tested, and the Kd [2] was 8.49 nM, the koff [2] was 0.00134 s⁻¹ and the kon [2] was 158000 M⁻¹ s⁻¹. The “EC50 (read off the curve)” value [6] was about 0.9 nM, the Kd [4] was 0.142 nM and the koff [4] was 3.07e-05 s⁻¹. For the same binder, the kon [4] was 217000 M⁻¹ s⁻¹, the binding result (CD40) was “no binding” and the binding result (OX40) was “no binding”. B3: no binding (GITR).

B4: 2.27.16-u1-1-hIgG4L (antibody, V domains shown)
VH: QEQLQESGPGLVKPSQTLSLTCTVSGGSINSQGYYWSWIRQHPGKGLEWIGYIYDSGSAYYNPSLERRVAISLDTSKNQFSLNLNSVTVADTAVYYCARIVAAGRIDPWGQGTLVTVSS
VL: SYVLTQPPSVSVAPGQTARMTCGGDNIGIKIVHWYQQKAGQAPVLVVYDDNDRPSGIPDRFSGSNSGNTATLTISRVAAGDEADYYCQVWDRRSDHVVFGGGTKLTVL
B4 showed a Kd [2] of 6.27 nM, a koff [2] of 0.00136 s⁻¹ and a kon [2] of 217000 M⁻¹ s⁻¹. The “EC50 (read off the curve)” value [6] was about 0.8 nM, the Kd [4] was 0.439 nM and the koff [4] was 0.000101 s⁻¹. For the same binder, the kon [4] was 230000 M⁻¹ s⁻¹, the binding result (CD40) was “no binding” and the binding result (OX40) was “no binding”. B4: no binding (GITR).
